Assay results: patent US10357539B2, “Use of peptides that block metadherin-SND1 interaction as treatment for cancer” (THE TRUSTEES OF PRINCETON UNIVERSITY, priority 2014, dated 2019)
Where a chain is given by its changes, count along the chain named. Numbers in names are those of the source. Entries after “also recorded” stand apart in the source; their conditions may differ.

Experiments:
[1] = biological target: T1, MTDH-SND1 interaction (Homo sapiens, UniProt Q7KZF4); test: Immunoprecipitation assay: elution or co-incubation with MTDH peptides, western blot; type: biochemical; conditions: 50 uM of peptides; IP of HA-SND1 from 293T (HA-SND1 + MYC-MTDH) and of endogenous SND1 from MDA-MB-231
T1 construct: Full-length HA-tagged SND1 was co-expressed with full-length Myc-tagged wild-type (WT) or mutant MTDH in HEK293T cells; expressed in transfected cells; host or cells: 293T
T1 sequence (Q7KZF4 1-910): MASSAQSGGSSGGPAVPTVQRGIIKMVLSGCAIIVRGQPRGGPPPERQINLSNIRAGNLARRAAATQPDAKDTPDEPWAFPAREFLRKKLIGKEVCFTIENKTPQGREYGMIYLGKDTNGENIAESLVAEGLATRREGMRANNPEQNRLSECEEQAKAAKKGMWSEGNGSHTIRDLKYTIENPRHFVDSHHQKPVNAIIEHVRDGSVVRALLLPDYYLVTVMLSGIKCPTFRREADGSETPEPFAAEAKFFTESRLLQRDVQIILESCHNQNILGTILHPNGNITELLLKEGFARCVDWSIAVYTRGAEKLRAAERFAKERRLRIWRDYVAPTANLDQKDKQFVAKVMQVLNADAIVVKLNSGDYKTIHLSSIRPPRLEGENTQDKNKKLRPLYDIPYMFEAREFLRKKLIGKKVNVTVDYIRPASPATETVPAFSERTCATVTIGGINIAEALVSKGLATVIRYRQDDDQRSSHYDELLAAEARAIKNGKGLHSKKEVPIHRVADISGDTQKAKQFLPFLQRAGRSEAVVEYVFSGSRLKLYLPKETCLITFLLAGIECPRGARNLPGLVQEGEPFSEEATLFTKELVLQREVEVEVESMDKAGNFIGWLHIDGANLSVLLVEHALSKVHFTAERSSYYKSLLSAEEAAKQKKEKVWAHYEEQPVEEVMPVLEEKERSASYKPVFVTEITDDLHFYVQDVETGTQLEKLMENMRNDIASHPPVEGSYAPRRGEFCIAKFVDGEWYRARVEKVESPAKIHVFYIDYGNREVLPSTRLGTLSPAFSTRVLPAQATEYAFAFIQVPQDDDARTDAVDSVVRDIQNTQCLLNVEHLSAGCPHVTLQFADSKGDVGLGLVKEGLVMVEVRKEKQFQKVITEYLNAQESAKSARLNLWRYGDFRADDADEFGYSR
Experimental: 293T cells co-transfected with HA-SND1 and MYC-MTDH. After 48 hr cells were collected and subjected to IP assay. (FIG. 26A, FIG. 26B) Cell lysate was incubated with anti-HA antibody or IgG overnight followed by 2 hr incubation with Protein A/G beads to pull down HA-SND1 protein. The beads was washed with lysis buffer and split into 5 fractions. Each fraction was eluted with buffer or indicated peptides for 30 min. The elution fractions and beads were collected for WB. (FIG. 26C, FIG. 26D) Cell lyaste was split into 6 fractions, one of them was incubated with IgG and the rest were incubated with anti-HA antibody plus either buffer or indicated peptides. After 24 hr, the lysate was incubated with Protein A/G beads then the beads were washed in wash buffer.
Breast cancer cells MDA-MB231 were collected and subjected to IP assay. (FIG. 27A) Cell lysate was incubated with anti-SND1 antibody or IgG overnight followed by 2 hr incubation with Protein A/G beads to pull down endogenous SND1 protein. The beads were washed with lysis buffer and split into 5 fractions. Each fraction was eluted with buffer or indicated peptides for 30 min. The elution fractions and beads were collected for WB. (FIG. 27B) Cell lyaste was split into 5 fractions, and incubated with anti-SND1 antibody plus either buffer or indicated peptides. After 24 hr, the lysate was incubated with Protein A/G beads then the beads were washed in wash buffer.
293 T cells were co-transfected with HA-SND1 and MYC-MTDH. After 48 hours, the cells were collected and subject to immunoprecipitation assay. Cell lysate was incubated with anti-HA antibody or IgG overnight followed by a two hour incubation with Protein A/G beads to pull down HA-SND1 protein. The beads were washed with lysis buffer and split into five fractions. Each fraction was eluted with buffer or indicated peptides (i.e., Peptide—wt (PNSDWNAPAEEWGNW, SEQ ID NO: 16); Peptide-394A (PNSDANAPAEEWGNW, SEQ ID NO: 17); Peptide-401A (PNSDWNAPAEEAGNW, SEQ ID NO: 18) and Peptide-MT (PNSDANAPAEEAGNW, SEQ ID NO: 19) for 30 minutes.
The elution fractions and beads were collected for western blot. (FIGS. 26C and 26D) Cell lyaste was split into 6 fractions. One of the fractions was incubated with IgG and the rest were incubated with anti-HA antibody plus either buffer or indicated peptides. After 24 hours, the lysate was incubated with Protein A/G beads then the beads was washed followed by wash buffer. 50 uM of peptides was used in all the assays.
The interaction interruption effects was confirmed by endogenous immunoprecipitation (IP) of a breast cancer cell line. Briefly, cell lysates from the breast cancer cell line MDA-MB-231 were collected and subjected to IP assay. […]

[2] = biological target: T2, SND1 (Homo sapiens, UniProt Q7KZF4); test: GST-mediated pull-down of SND1 by GST-tagged MTDH fragments and mutants; type: binding; conditions: His6-SND1ΔC (1-339); Coomassie blue staining
T2 construct: 15 μg of His-SND1 (16-339) was added to the resin; made in house; host or cells: E. coli DH5α
T2 sequence (Q7KZF4 1-339): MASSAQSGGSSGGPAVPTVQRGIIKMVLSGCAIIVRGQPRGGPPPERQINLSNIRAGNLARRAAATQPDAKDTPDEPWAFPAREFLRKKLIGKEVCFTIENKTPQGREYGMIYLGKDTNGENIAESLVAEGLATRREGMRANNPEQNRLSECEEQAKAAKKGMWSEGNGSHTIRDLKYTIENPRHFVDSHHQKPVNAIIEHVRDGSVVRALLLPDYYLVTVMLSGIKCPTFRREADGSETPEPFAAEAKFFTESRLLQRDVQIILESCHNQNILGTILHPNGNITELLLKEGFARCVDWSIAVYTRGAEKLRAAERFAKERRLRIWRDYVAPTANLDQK
Outline: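 GST-MTDH fragments or mutants (~20 μg) on glutathione resin incubated with 15 μg His-SND1 (16-339) in 25 mM Tris pH 8.0, 150 mM NaCl, 3 mM DTT plus 2 mg/ml BSA. Bound protein resolved by SDS-PAGE, Coomassie-stained; bound SND1 ratio quantified by densitometry over 3 repeats.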

[3] = biological target: T3, SND1 (Homo sapiens, UniProt Q7KZF4); test: Co-immunoprecipitation of full-length Myc-MTDH (WT or mutant) and HA-SND1 in HEK293T cells; type: cell-based; conditions: HEK293T cell lysates, immunoprecipitation and immunoblot
T3 construct: Full-length HA-tagged SND1 was co-expressed with full-length Myc-tagged wild-type (WT) or mutant MTDH in HEK293T cells; expressed in transfected cells; host or cells: HEK293T
T3 sequence (Q7KZF4 1-910): T1 sequence (Q7KZF4 1-910)
Description: (§1) FIGS. 7A-E represents determination of key regions and residues mediating the MTDH-SND1 interaction. (FIG. 7A) Schematics of MTDH fragments and mutants with indicated SND1-binding capability. + indicates binding and − indicates no binding based on results shown below. Two putative nuclear localization signals are residues 432-451 for NLS2 and residues 561-580 for NLS3. In the enlarged view of the minimal binding region 386-407, 9 residues were targeted for mutagenesis in the current study. […] (FIG. 7B) Pulldown of His6-SND1AC by GST-tagged MTDH fragments with indicated boundaries. The bound proteins were examined by SDS-PAGE and visualized by Coomassie blue staining. (FIG. 7C) Pulldown of His6-SND1ΔC by GST-tagged WT or triple mutant MTDH fragments (364-582). For (FIG. 7B) and (FIG. 7C), 1/10 of the His6-SND1ΔC input was shown, and GST alone was used as a negative control. Representative results of 3 independent experiments are shown. (FIG. 7D, FIG. 7E) Lysates from HEK293T cells expressing the indicated ectopic human SND1, AGO2 or MTDH were immunoprecipitated with anti-Myc and immunoblotted with the indicated antibodies.
(FIG. 22A) In vitro pull-down of SND1 (16-339) by GST-tagged MTDH (364-582) harboring WT or mutant sequence. The proteins bound to GS4B were examined on SDS-PAGE and visualized by Coomassie blue staining. (FIG. 22B) In vitro pull-down of WT and mutant SND1 (16-339) by GST-tagged MTDH (364-582). The bound proteins were examined as in (FIG. 22A). For both (FIG. 22A) and (FIG. 22B), experiments were repeated three times; representative results are shown. The normalized percentage of binding was averaged from three experiments; mean±SEM was shown below the data. (FIG. 22C) HEK293T cells were transfected with human HA-SND1, WT Myc-MTDH or Myc-MTDH with indicated single point mutation. Lysates were immunoprecipitated with anti-Myc antibody and immunoblotted with the indicated antibodies. (FIG. 22D) HEK293T cells were transfected with human Myc-MTDH, WT HA-SND1 or mutant HA-SND1 with indicated single point mutations or deletions. Lysates were immunoprecipitated with anti-Myc and immunoblotted with the indicated antibodies.
Immunoprecipitation and western blot For immunoprecipitation (IP) experiments, cultured cells were washed in cold PBS and lysed in lysis buffer (20 mM Tris pH 7.4, 0.15 M NaCl, 1 mM EDTA, 1 mM EGTA, 1% Tx-100, 0.0025 M Na2P2O7, 1 mM α-glycerolphosphate, 1 mM Na3VO4, and 1 mM NaF) with an EDTA-free protease inhibitor mixture (Roche Applied Science) and PMSF. Cell lysates were then incubated on ice for 10 min, centrifuged, and precleared by incubating with protein A/G beads (Santa Cruz Biotechnology) for 1 h at 4° C. For IP bead preparation, 30 μl of protein A/G beads were incubated with 5 μg of antibodies for 2 h at 4° C. IPs were carried out for overnight at 4° C., and beads were centrifuged, washed and subsequently boiled for 5 min in SDS protein loading buffer to elute bound protein. IP lysates were subjected to western blotting with indicated antibodies.
Immunoprecipitation and western blot: For in vivo immunoprecipitation (IP) experiments, cultured cells were washed in cold PBS and lysed in lysis buffer (20 mM Tris pH 7.4, 0.15 M NaCl, 1 mM EDTA, 1 mM EGTA, 1% Tx-100, 0.0025 M Na2P2O7, 1 mM β-glycerolphosphate, 1 mM Na3VO4, and 1 mM NaF) with an EDTA-free protease inhibitor mixture (Roche Applied Science) and PMSF. Cell lysates were then incubated on ice for 10 min, centrifuged, and precleared by incubating with protein A/G beads (Santa Cruz Biotechnology) for 1 h at 4° C. For IP bead preparation, 30 μl of protein A/G beads were incubated with 5 μg of antibodies for 2 h at 4° C. IPs were carried out for overnight at 4° C., and beads were centrifuged, washed and subsequently boiled for 5 min in SDS protein loading buffer to elute bound protein. IP lysates were subjected to western blotting with indicated antibodies.

[4] = biological target: T4, AGO2 (Homo sapiens, UniProt Q9UKV8); test: Co-immunoprecipitation of Myc-MTDH mutants with AGO2 in HEK293T cells; type: cell-based; conditions: HEK293T cell lysates, anti-Myc immunoprecipitation
T4 construct: expressed in transfected cells; host or cells: HEK293T
T4 sequence (Q9UKV8 whole entry): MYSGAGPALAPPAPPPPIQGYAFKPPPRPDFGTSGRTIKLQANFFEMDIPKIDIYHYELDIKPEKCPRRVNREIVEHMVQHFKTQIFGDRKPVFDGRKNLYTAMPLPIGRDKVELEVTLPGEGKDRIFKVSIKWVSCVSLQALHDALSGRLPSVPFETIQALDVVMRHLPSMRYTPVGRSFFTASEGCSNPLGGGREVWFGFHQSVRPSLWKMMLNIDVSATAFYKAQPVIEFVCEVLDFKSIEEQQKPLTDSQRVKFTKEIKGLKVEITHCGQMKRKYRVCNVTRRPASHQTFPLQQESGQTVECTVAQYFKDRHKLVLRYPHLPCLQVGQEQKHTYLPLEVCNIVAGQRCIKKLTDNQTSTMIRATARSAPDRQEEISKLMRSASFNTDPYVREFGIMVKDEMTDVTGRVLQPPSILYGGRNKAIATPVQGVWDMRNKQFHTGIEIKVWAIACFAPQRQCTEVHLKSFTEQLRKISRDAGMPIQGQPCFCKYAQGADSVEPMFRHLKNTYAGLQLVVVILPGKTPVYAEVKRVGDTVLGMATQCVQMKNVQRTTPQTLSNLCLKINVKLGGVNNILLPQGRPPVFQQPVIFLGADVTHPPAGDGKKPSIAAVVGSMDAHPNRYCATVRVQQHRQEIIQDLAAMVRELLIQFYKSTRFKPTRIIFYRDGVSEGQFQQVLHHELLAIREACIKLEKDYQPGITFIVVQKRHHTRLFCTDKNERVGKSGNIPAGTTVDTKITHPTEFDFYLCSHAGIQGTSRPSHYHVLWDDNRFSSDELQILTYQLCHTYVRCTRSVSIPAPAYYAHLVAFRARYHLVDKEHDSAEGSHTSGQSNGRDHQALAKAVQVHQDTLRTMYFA
Description: as §1, with “antibodies. […]” for “antibodies.”

PNSDANAPAEEAGNW (listed as Homo sapiens) [double point mutation]
block of MTDH-SND1 interaction by peptide [1]: have no effect in interrupting the interaction of MTDH with SND1

PNSDANAPAEEWGNW (listed as Homo sapiens) [single point mutation W394A]
block of MTDH-SND1 interaction by peptide [1]: have no effect in interrupting the interaction of MTDH with SND1

PNSDWNAPAEEAGNW (listed as Homo sapiens)
block of MTDH-SND1 interaction by peptide [1]: reduced the effectiveness of the wild type peptide by half

PNSDWNAPAEEWGNW (listed as Homo sapiens) [wild type MTDH peptide]
block of MTDH-SND1 interaction by peptide [1]: can effectively block MTDH-SND1 interaction; also recorded: significant block MTDH-SND1 interaction

B1: TPM1: MTDH triple-point mutant D389R, D393R and W394D (protein)
chain: YQWDVSRNQPYIDDEWSGLNGLSSARPNSRDNAPAEEWGNWVDEERASLLKSQEPIPDDQKVSDDDKEKGEGALPTGKSKKKKKKKKKQGEDNSTAQDTEELEKEIREDLPVNTSKTRPKQEKAFSLKTISTSDPAEVLVKNSQPIKTLPPATSTEPSVILSKSDSDKSSSQVPPILQETDKSKSNTKQNSVPPSQTKSETSWESPKQIKKKKKARRET
modifications: left off: a dimerising Fc or GST
notes: MTDH triple-point mutant D389R, D393R and W394D
SND1-binding of MTDH fragments and triple mutants, in vitro [2]: could not bind
interaction of full-length MTDH (WT or mutant) with HA-SND1 [3]: not
interaction of MTDH mutants with AGO2 [4]: still able to interact with AGO2

B2: TPM2: MTDH triple-point mutant E399R, E400R and W401D (protein)
chain: B1 chain with R26D, R30D, D31W, E36R, E37R, W38D
modifications: left off: a dimerising Fc or GST
notes: MTDH triple-point mutant E399R, E400R and W401D
SND1-binding of MTDH fragments and triple mutants, in vitro [2]: could not bind
interaction of full-length MTDH (WT or mutant) with HA-SND1 [3]: not
interaction of MTDH mutants with AGO2 [4]: still able to interact with AGO2
